Consider one substance from article PMC7793103.

For the data set, the system named is HIV-1 reverse transcriptase (HXB2-RT) (HIV-1 (HXB2)). Briefly: MST. The conditions noted are these: MST: 50 nM RNA complex titrated with RT; binding buffer, pH and temperature not stated; annealing buffer 10 mM Tris-HCl pH 7.5, 10 mM NaCl, 1 mM MgCl2, 140 mM ….

By Kd is commonly meant the free concentration of one partner at which half of the binding sites on the other are occupied at equilibrium, for simple one-to-one binding. Read a high Kd as lower affinity. With MAL 5'UTR:tRNALys3, the Kd came to 1.36 µM.
